± gives the half width of the 95% confidence interval.
Assay: folding stability dG unfold (combined trypsin and chymotrypsin); higher = more stable
Procedure, shortened: (§1)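 Unfolding free energy was derived, per protease or combined, against a sequence-predicted unfolded-state K50 and a shared folded-state K50, starting from K50 inferred by Bayesian fitting of sequencing counts. Digestion with trypsin and chymotrypsin was carried out on designed mini-proteins under 80 residues without cysteine in a PA-tagged cDNA display construct. Only designs with AlphaFold2 dimer inter-PAE above 15 were kept.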

| Sequence | folding stability dG unfold |
| --- | --- |
| SAGGPNIRIDINLMPHPGKPYIMVRIEIPNGYKREIMFNPDDGKISIEIRYPGKEEKIEFPLDDIKPISAGG [r13_328_TrROS] | 4.42 ± 0.32 kcal/mol |
| SAGGSMRLVERTFVPVKTFTFLSTFNLIQPPGVPVPTFTTLTVVFTPVFTRLVEVVTEPPGRVVEVLLSAGG [r13_148_JUSTAS] | 4.06 ± 0.21 kcal/mol |
| SAGGSAGGSAGGIPPDVKVKPVATVNLTAEVEVTVLGPEGGPTFTVKVEVKVVFAESTDSAGGSAGGSAGGS [r10_758_TrMRF] | 2.11 ± 0.26 kcal/mol |
| SAVITLPDGTTVPSTVVEETETPDGVRITVRTERDGVLEIVDLYEPPGGEVTVLSTEVVPVPPGDPALESAG [r14_13_JUSTAS] | 0.285 ± 0.091 kcal/mol |
| SAGGSAGGSAGGSKKTITLDIKVNGYLVKVKLNLETNKLEIVEVYKVSPEKKKLSPKDKSAGGSAGGSAGGS [r4_21_TrROS_Hall] | 1.93 ± 0.1 kcal/mol |
| SAGGSAGGSAGGGKVTAVVTFTGPDGSKVVLAFHPDGSVTVRYFDPNGELVGEKTFAGAGSAGGSAGGSAGG [r7_544_TrMRF] | 4.27 ± 0.14 kcal/mol |
| SAGGSAGGSMVLRIKTEDGEEIEIELPEELKELSAEEIAELLGLDEVKVVEVEVVEPEEEEEESAGGSAGGS [r12_411_TrROS_Hall] | 1.66 ± 0.19 kcal/mol |
| SAGGSAGGSALPDLEFPFELVEEVEVPVYDPLSDEVLGTVRVWKVRVPGGPELTLVEFDPESAGGSAGGSAG [r3_166_TrMRF] | 1.35 ± 0.061 kcal/mol |
| IRGMPVEEIKEIARDFFRKHGMKVTTVEIVPTPNGMTQVDIEIEPPDKGRRYRIDIYVPEDGMVQIDIEPYS [r1_460_TrROS] | 2.4 ± 0.24 kcal/mol |
| SAGGSAGGMPTLVVLREVAEKLEEGQRVRVRFRIPGTDEWVEAEVPINDPELVINFENPEVEEASAGGSAGG [r6_401_TrMRF] | 1.33 ± 0.12 kcal/mol |
| SAMVIEIEIPSEELLKKLEELLPPGARIKKVEIVKENGKVKIIVELEPGMSEEEKERIKKKIEELLKEESAG [r14_306_TrROS_Hall] | > 6 kcal/mol |
| SAGGERERLLTLEVEIDVPPGVSPEEIAARLAALLPPGAEIERVEIRYDPATRKITVRVVIRLPEGLSAGGS [r16_396_TrROS_Hall] | 3.25 ± 0.29 kcal/mol |
| SAGGSAMIEVKIEVPDDASEEEKAELAEKIKKEIKASGVEPTENGIPVKKSLENVEVKVTFLKKKKSAGGSA [r15_717_JUSTAS] | -0.196 ± 0.38 kcal/mol |
| SAGGSAGGMEIRVERDPESDLLVAELKIDGHDAIAVFDPNRPGHIEIGTTNEIPIEEIIDALLSSAGGSAGG [r6_195_TrMRF] | 0.152 ± 0.37 kcal/mol |
| SAGGSAGGSAMKVTVEEEELEVEPGETVKIKIRLPNGEEREFSLEDLKKLPPGEAEVEIERVSAGGSAGGSA [r18_394_TrROS_Hall] | 0.785 ± 0.18 kcal/mol |
| SAGGSAGGSAGGSSMTLVTEETELPSPLRKVTKYTIDPKNPGKITSETTWYDPEGKPLGSAGGSAGGSAGGS [r4_297_JUSTAS] | 0.0774 ± 0.17 kcal/mol |
| SAGGGMTVVRITHPDGTPLTIEYDPNNPVATVHFADGTTETIPMPPDKTIEDLIAKLPEDAEVEVHDRSAGG [r13_696_JUSTAS] | 0.847 ± 0.14 kcal/mol |
| SAGGSAGGMIEVYEEGDKLTVLNPGPDPNKKVTVTLDNGSATSSRIPEGTYVTTATVAPDATLKSAGGSAGG [r6_70_JUSTAS] | -0.169 ± 0.099 kcal/mol |
| SAGGSAGGSVKPGEKVLVRVRNPATGRWEEVVATVNEDGSITIYNKETGKTETIPLKDIELVPSAGGSAGGS [r12_726_TrROS_Hall] | 4.37 ± 0.088 kcal/mol |
| SAGGSAGGGLIEIIPNTLKAKIINPKTGKVEEIEFSNIDELIEEIKKKYPNVDFKILPNGIILGSAGGSAGG [r6_286_TrMRF] | 3.05 ± 0.19 kcal/mol |
| SAGGSEFEIIEVKDGTVVIRNKKTNELITVKVKIEVKPPPPVVVKKPGEEVTVKEGKKVTVLKEGEKKSAGG [r13_322_TrROS_Hall] | 0.498 ± 0.18 kcal/mol |

| Sequence | folding stability dG unfold |
| --- | --- |
| SAGGSAGGSAGGKFKIVKVEKVKNENGEEYVRVYLYNKDGKPVKEFTMSKEELEKLLKELSAGGSAGGSAGG [r7_891_TrROS_Hall] | 2.88 ± 0.15 kcal/mol |
| SAGGEEGKPKWVEMWIFIPKEILEDIKQGEPLTVKQIAQKIGFPPNIEVKIIEREGDYIYVRITIPVSAGGS [r16_679_TrROS] | 4.66 ± 0.27 kcal/mol |
| SAGGSAGGSAGGDGIVVPVDEAVGLIKELGLKVVGVFEHPGGPPAVLFELPDGRLLLAESAGGSAGGSAGGS [r10_210_TrMRF] | 0.603 ± 0.047 kcal/mol |
| SAGGSAGGSAGTLRLEVELKLRVRNPATREWQEVTLRLEVEFEPAPPVLVRDANGRLLLLSAGGSAGGSAGG [r11_307_TrROS_Hall] | 2.98 ± 0.082 kcal/mol |
| SIFRIRMPGNREFRIFIPPDGMVNVSMPNGKKHTHPFKDKEDAKEIADVLSKHFPNMPVEIEPIPPDDIKSA [r9_1206_TrROS] | 0.793 ± 0.37 kcal/mol |
| SAGGVPVSVEVDPRGEVTITNPVNGSSLVIPVPPDAEVTVVSLPPSSVTVRVTVGGEERDIVLPPSSVSAGG [r19_309_JUSTAS] | 0.621 ± 0.065 kcal/mol |
| SAGGSAGGSSPLIEKLRKDPNVTKIEIDTVKNTTYIYTPNKIYIINSKGEIEKVEEVSPEILKSAGGSAGGS [r12_895_JUSTAS] | 1.81 ± 0.17 kcal/mol |
| SAGGSAGGSKKKTIVILVPPGMSVDAIKKKLKELGIKVKIVPAPPVKVKVDEKTNELKVEKVTSAGGSAGGS [r12_80_TrROS_Hall] | 0.657 ± 0.15 kcal/mol |
| SAGGSAGGPVWKIRFPDDGKPYEFHINPNHGMIEVEDPKDGEPKGTVPMPINQLLEKGMEVEPVSAGGSAGG [r6_832_TrROS] | -0.551 ± 0.21 kcal/mol |
| SAGGSAGGSMSPSSSYTIEKVSEDPSRGVITLKITYPTGESITLKLSPADEEKAEEEAKKLLESAGGSAGGS [r20_167_JUSTAS] | 1.63 ± 0.17 kcal/mol |
| SKMKIKIEVEKVEDGYLKITITAESKEEAEKAIKELAKKLFGIEEVKVEYDKETKKITVEIIIRPPGEKVSA [r9_1120_TrROS_Hall] | 2.95 ± 0.35 kcal/mol |
| SAGKKKKIKVKIEIRVKKKYKTKDGKEVEEKEETITVEIEMTLEELKEAIKKLPENVEITKITKIEKESAGG [r19_114_TrROS_Hall] | 2.26 ± 0.16 kcal/mol |
| SAGGSAGGSGMEKIVVEVKFPDGTVETYEFPAGVPVNIDPAVTGDVKITTLDPEGKTTEYVLKSAGGSAGGS [r12_380_JUSTAS] | -0.118 ± 0.1 kcal/mol |
| SAGGPLTEEQLKEQAKQIKDQLAKEFADMNGFPVTEIDDVEVVPDGWISIEIEYPGMGMPYTITIPWSAGGS [r16_622_TrROS] | 1.02 ± 0.095 kcal/mol |
| SAGGSHEYTHEYRIPGGYAIRIKTKWRFNPGNNNIQIEEPDIELVPLPPVPPPPVPPEDADKNGIPPDDSAG [r5_393_TrROS] | 1.74 ± 0.12 kcal/mol |
| SAGGSAGGSAGGSDRVEVELIFKFPNGFYVVIKWEIDPDEPGKIEMEIAIFDPDGKPIWSAGGSAGGSAGGS [r4_297_TrROS] | 4.63 ± 0.19 kcal/mol |
| SAGGSAGGSAPPGQQLRVRIRIYNPNNGEPKREREFPGMTVDDLKEWAQKNGWRIREIEVDSAGGSAGGSAG [r3_423_TrROS] | 1.3 ± 0.095 kcal/mol |
| SAGALPPDQVVPIPVLVRLSEDDPELREAIERGEVVEFELPGPLRLLAEFEPLPEDLVLVTLYLEVPEGSAG [r5_223_TrMRF] | 1.98 ± 0.17 kcal/mol |
| SAGFKIVDVEPTDGRLEITIPIDKPGDALMFMVPFPNAKITPDPNGKITITIPPGGWYMIMIRLKKDASAGG [r19_227_TrROS] | 2.6 ± 0.14 kcal/mol |
| SKATVLPNGEVVVTAEATFTLPDGTKVTVRVEVRIGPDGTLRPGVTVTVEPVPPPEKPLNIDFDPVTLPKSA [r9_1168_TrMRF] | 2.67 ± 0.33 kcal/mol |
| SAGGSAGGSAGGSKLKIELNEDGTLRIVNEDTNEVYEIKLELPPPPPVETEVKYVSLEDLSAGGSAGGSAGG [r11_352_TrROS_Hall] | 0.47 ± 0.31 kcal/mol |

Assay: folding stability dG unfold from chymotrypsin proteolysis; higher = more stable
Procedure, shortened: as §1

| Sequence | folding stability dG unfold |
| --- | --- |
| SAGGPNIRIDINLMPHPGKPYIMVRIEIPNGYKREIMFNPDDGKISIEIRYPGKEEKIEFPLDDIKPISAGG [r13_328_TrROS] | 4.7 ± 0.3 kcal/mol |
| SAGGSMRLVERTFVPVKTFTFLSTFNLIQPPGVPVPTFTTLTVVFTPVFTRLVEVVTEPPGRVVEVLLSAGG [r13_148_JUSTAS] | 4.33 ± 0.13 kcal/mol |
| SAGGSAGGSAGGIPPDVKVKPVATVNLTAEVEVTVLGPEGGPTFTVKVEVKVVFAESTDSAGGSAGGSAGGS [r10_758_TrMRF] | 2.57 ± 0.24 kcal/mol |
| SAVITLPDGTTVPSTVVEETETPDGVRITVRTERDGVLEIVDLYEPPGGEVTVLSTEVVPVPPGDPALESAG [r14_13_JUSTAS] | -0.00381 ± 0.062 kcal/mol |
| SAGGSAGGSAGGSKKTITLDIKVNGYLVKVKLNLETNKLEIVEVYKVSPEKKKLSPKDKSAGGSAGGSAGGS [r4_21_TrROS_Hall] | 2.33 ± 0.068 kcal/mol |
| SAGGSAGGSAGGGKVTAVVTFTGPDGSKVVLAFHPDGSVTVRYFDPNGELVGEKTFAGAGSAGGSAGGSAGG [r7_544_TrMRF] | 4.56 ± 0.1 kcal/mol |
| SAGGSAGGSMVLRIKTEDGEEIEIELPEELKELSAEEIAELLGLDEVKVVEVEVVEPEEEEEESAGGSAGGS [r12_411_TrROS_Hall] | 2.01 ± 0.05 kcal/mol |
| SAGGSAGGSALPDLEFPFELVEEVEVPVYDPLSDEVLGTVRVWKVRVPGGPELTLVEFDPESAGGSAGGSAG [r3_166_TrMRF] | 1.3 ± 0.047 kcal/mol |
| IRGMPVEEIKEIARDFFRKHGMKVTTVEIVPTPNGMTQVDIEIEPPDKGRRYRIDIYVPEDGMVQIDIEPYS [r1_460_TrROS] | 2.54 ± 0.13 kcal/mol |
| SAGGSAGGMPTLVVLREVAEKLEEGQRVRVRFRIPGTDEWVEAEVPINDPELVINFENPEVEEASAGGSAGG [r6_401_TrMRF] | 1.48 ± 0.097 kcal/mol |
| SAMVIEIEIPSEELLKKLEELLPPGARIKKVEIVKENGKVKIIVELEPGMSEEEKERIKKKIEELLKEESAG [r14_306_TrROS_Hall] | 3.59 ± 0.4 kcal/mol |
| SAGGERERLLTLEVEIDVPPGVSPEEIAARLAALLPPGAEIERVEIRYDPATRKITVRVVIRLPEGLSAGGS [r16_396_TrROS_Hall] | 2.78 ± 0.093 kcal/mol |
| SAGGSAMIEVKIEVPDDASEEEKAELAEKIKKEIKASGVEPTENGIPVKKSLENVEVKVTFLKKKKSAGGSA [r15_717_JUSTAS] | 0.074 ± 0.33 kcal/mol |
| SAGGSAGGMEIRVERDPESDLLVAELKIDGHDAIAVFDPNRPGHIEIGTTNEIPIEEIIDALLSSAGGSAGG [r6_195_TrMRF] | -0.08 ± 0.32 kcal/mol |
| SAGGSAGGSAMKVTVEEEELEVEPGETVKIKIRLPNGEEREFSLEDLKKLPPGEAEVEIERVSAGGSAGGSA [r18_394_TrROS_Hall] | 0.729 ± 0.13 kcal/mol |
| SAGGSAGGSAGGSSMTLVTEETELPSPLRKVTKYTIDPKNPGKITSETTWYDPEGKPLGSAGGSAGGSAGGS [r4_297_JUSTAS] | 0.362 ± 0.17 kcal/mol |
| SAGGGMTVVRITHPDGTPLTIEYDPNNPVATVHFADGTTETIPMPPDKTIEDLIAKLPEDAEVEVHDRSAGG [r13_696_JUSTAS] | 1.19 ± 0.026 kcal/mol |
| SAGGSAGGMIEVYEEGDKLTVLNPGPDPNKKVTVTLDNGSATSSRIPEGTYVTTATVAPDATLKSAGGSAGG [r6_70_JUSTAS] | -1.06 ± 0.36 kcal/mol |
| SAGGSAGGSVKPGEKVLVRVRNPATGRWEEVVATVNEDGSITIYNKETGKTETIPLKDIELVPSAGGSAGGS [r12_726_TrROS_Hall] | 4.25 ± 0.055 kcal/mol |
| SAGGSAGGGLIEIIPNTLKAKIINPKTGKVEEIEFSNIDELIEEIKKKYPNVDFKILPNGIILGSAGGSAGG [r6_286_TrMRF] | 2.82 ± 0.07 kcal/mol |
| SAGGSEFEIIEVKDGTVVIRNKKTNELITVKVKIEVKPPPPVVVKKPGEEVTVKEGKKVTVLKEGEKKSAGG [r13_322_TrROS_Hall] | 0.916 ± 0.13 kcal/mol |

Reference: the supplement of paper PMC12764529
